Test results taken from publication PMC5548887 (2017).

Legend:
UbcH7 K96S = UbcH7 K96S (UniProt P68036 1-154, K96S); experiment: ITC
UbcH7 wild type = UbcH7 wild type (UniProt P68036 1-154); experiment: ITC

B1: HHARI^ΔHG (protein)
chain: MDSDEGYNYEFDEDEECSEEDSGAEEEEDEDDDEPDDDTLDLGEVELVEPGLGVGGERDGLLCGETGGGGGSALGPGGGGGGGGGGGGGGPGHEQEEDYRYEVLTAEQILQHMVECIREVNEVIQNPATITRILLSHFNWDKEKLMERYFDGNLEKLFAECHVINPSKKSRTRQMNTRSSAQDMPCQICYLNYPNSYFTGLECGHKFCMQCWSEYLTTKIMEEGMGQTISCPACDILVDDNTVMRLITDSKVKLKYQHLITNSFVECNRLLKWCPAPDCHHVVKVQYPDAKPVRCKCGRQFCFNCGENWHDPVKCKWLKKWIKKCDDDSETSNWIAANTKECPKCHVTIEKDGGCNHMVCRNQNCKAEFCWVCLGPWEPHGSAWYNCNRYNEDDAKAA
UbcH7 K96S
  Kd: 15.7 µM
UbcH7 wild type
  Kd: 0.965 µM
